Binding data for three sequences are collected here from publication PMC5506826.

Holding throughout (conditions): EMSA: 40 mM Tris-HCl pH 8, 100 mM KCl, 0.5 mM DTT, 0.05% NP40, 2 mM spermidine, 0.2 mM EDTA, 8% glycerol, 15 ng/ul herring sperm DNA, 30 min room temperature …
A general note: A gel shift assay detects complexes by their altered migration in electrophoresis.

For data set [1], the system named is T1, 6His-SUMO-RegA (Acidithiobacillus ferrooxidans ATCC 23270T), ORF:158a6978.
T1 sequence: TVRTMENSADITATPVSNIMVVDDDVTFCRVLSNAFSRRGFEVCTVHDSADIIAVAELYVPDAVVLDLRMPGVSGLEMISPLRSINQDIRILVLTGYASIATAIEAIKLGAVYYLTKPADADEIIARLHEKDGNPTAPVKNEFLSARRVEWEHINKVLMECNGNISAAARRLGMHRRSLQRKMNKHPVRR
Description: DLS.

Data set [2] has as its system T2, RegA-HTH-6His (Acidithiobacillus ferrooxidans ATCC 23270T), ORF:158a6978.
T2 sequence: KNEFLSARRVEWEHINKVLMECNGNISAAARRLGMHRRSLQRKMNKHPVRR
The data set is described as follows: EMSA.

Data set [3] has as its system T1, 6His-SUMO-RegA (Acidithiobacillus ferrooxidans ATCC 23270T), ORF:158a6978. The data set is described as follows: EMSA.

“CCCCAGTCATGAAGCCTACCGTGGTAATCGCCCCCCTTGCGGTTAAGCTAACTACTTCTGGTAAACCCCACTTCCATGGTGTGACGGGCGGTGTG (double strand) [rrs 16S 95 bp]”: the binding entry in data set [1] and in data set [2] was “no binding” throughout.
Consider “CATTATGCGGCTGGCACAATACATGCATAAAACATCTCGTGCTGCCGCGGGATTCTCATTTTCATTTACTCATTGAATATCATAAGCGGGATGCAGCCATAAATATAACGCTGGTTGTGTTATTGGGAGCGAGCATTTAATTCTGTTGATATCGTTTATGGGAATAACAAAAGTGGAGACGCAGCTGAAAAAGCGAAGCTGATGACAGAGTACGTTATACCTCACCAAATGGATTGGAGACTTGATATGCC (double strand) [tet 251 bp]”, for which, in data set [3], the binding result is “binds”.
The same measure, in the same setting: then “TGTCAGTTTTTGGGACATTTTAGTGATCGCGGCATATAATTAAAAGGCCAGATTAACATGTTTAAATAACGTTAGCACATAATTCTTTTCTTATGTTCTTTATTTAAGTTATTGTGTTTTAGTGGATCCGTATCGTGATG (double strand) [rus PI 140 bp]”, with “binds”.
